Legend:
CD33-Fc [1] = target: T1, CD33-Fc (UniProt P20138 18-259); assay: dot blot overlay of whole bacteria with soluble receptor
T1 construct: Negative control construct; not shown: Fc part, detected with goat anti-human Fc antibodies

[2] = target: T2, CEACAM1-Fc soluble receptor construct (human, UniProt P13688 35-320); assay: assay not named
T2 construct: also called CC1-Fc; human CEACAM1-Fc; not shown: Fc part, detected with goat anti-human Fc antibodies
T2 sequence: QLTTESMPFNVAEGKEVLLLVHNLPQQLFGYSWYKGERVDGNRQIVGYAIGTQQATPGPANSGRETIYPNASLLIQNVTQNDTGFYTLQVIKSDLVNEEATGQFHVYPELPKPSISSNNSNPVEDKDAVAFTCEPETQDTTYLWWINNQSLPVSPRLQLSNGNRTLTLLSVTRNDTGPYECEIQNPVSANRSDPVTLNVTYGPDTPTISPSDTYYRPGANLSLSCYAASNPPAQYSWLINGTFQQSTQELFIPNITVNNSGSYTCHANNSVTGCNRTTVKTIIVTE

[3] = target: T2, CEACAM1-Fc soluble receptor construct; assay: Western blot overlay with CEACAM1-Fc
CD33-Fc [4] = target: T1, CD33-Fc; assay: blot overlay

T1 sequence (P20138 18-259 limits assumed): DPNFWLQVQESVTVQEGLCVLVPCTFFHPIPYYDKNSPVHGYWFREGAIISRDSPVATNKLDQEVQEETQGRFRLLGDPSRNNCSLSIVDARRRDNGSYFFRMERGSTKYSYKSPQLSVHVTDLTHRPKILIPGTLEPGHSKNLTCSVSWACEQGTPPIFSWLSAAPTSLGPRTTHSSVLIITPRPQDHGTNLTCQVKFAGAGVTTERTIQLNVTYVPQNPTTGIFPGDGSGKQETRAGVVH

B1: UspA1 protein of Moraxella catarrhalis strain MX2 (ATCC 25238) (ligand)
chain: QKVGKATNKISGGDNNTANGTYLTIGGGDYNKTKGRYSTIGGGLFNEATNEYSTIGSGGYNKAKGRYSTIGGGGYNEATNQYSTIGGGDNNTAKGRYSTIGGGGYNEATIENSTVGGGGYNQAKGRNSTVAGGYNNEATGTDSTIAGGRKNQATGKGSFAAGIDNKANADNAVALGNKNTIEGENSVAIGSNNTVKKGQQNVFILGSNTDTTNAQNGSVLLGHNTAGKAATIVNSAEVGGLSLTGFAGASKTGNGTVSVGKKGKERQIVHVGAGEISDTSTDAVNGSQLHALATVVAQNKADIKDLDDEVGLLGEEINSLEGEIFNNQDAIAKNQADIKTLESNVEEGLLDLSGRLIDQKADIDNNINNIYELAQQQDQHSSDIKTLKNNVEEGLLDLSGRLIDQKADLTKDIKALESNVEEGLLDLSGRLIDQKADIAKNQADIAQNQTDIQDLAAYNELQDAYAKQQTEAIDALNKASSANTDRIATAELGIAENKKDAQIAKAQANENKDGIAKNQADIQLHDKKITNLGILHSMVARAVGNNTQGVATNKADIAKNQADIANNIKNIYELAQQQDQHSSDIKTLAKVSAANTDRIAKNKAEADASFETLTKNQNTLIEQGEALVEQNKAINQELEGFAAHADVQDKQILQNQADITTNKTAIEQNINRTVANGFEIEKNKAGIATNKQELILQNDRLNRINETNNHQDQKIDQLGYALKEQGQHFNNRISAVERQTAGGIANAIAIATLPSPSRAGEHHVLFGSGYHNGQAAVSLGAAGLSDTGKSTYKIGLSWSDAGGLSGGVGGSYRWK
notes: Tested on whole bacteria or in whole cell lysates; migrates at >200 kDa unheated and at circa 92 kDa after boiling; also called MX2 UspA1
- binding result (CD33-Fc [1]): no binding (tested: 1-2 µg ml^-1)

B2: N-terminal recombinant MX2 peptide consisting of amino acids 1 to 449 (peptide)
chain: MNKIYKVKKNAAGHLVACSEFAKGHTKKAVLGSLLIVGILGMATTASAQKVGKATNKISGGDNNTANGTYLTIGGGDYNKTKGRYSTIGGGLFNEATNEYSTIGSGGYNKAKGRYSTIGGGGYNEATNQYSTIGGGDNNTAKGRYSTIGGGGYNEATIENSTVGGGGYNQAKGRNSTVAGGYNNEATGTDSTIAGGRKNQATGKGSFAAGIDNKANADNAVALGNKNTIEGENSVAIGSNNTVKKGQQNVFILGSNTDTTNAQNGSVLLGHNTAGKAATIVNSAEVGGLSLTGFAGASKTGNGTVSVGKKGKERQIVHVGAGEISDTSTDAVNGSQLHALATVVAQNKADIKDLDDEVGLLGEEINSLEGEIFNNQDAIAKNQADIKTLESNVEEGLLDLSGRLIDQKADIDNNINNIYELAQQQDQHSSDIKTLKNNVEEGLLDLSGR
- binding result [2]: no binding

B3: recombinant UspA1 fragment 6-8 (residues E659-K863 of UspA1 of MX2) (peptide)
chain: ETLTKNQNTLIEQGEALVEQNKAINQELEGFAAHADVQDKQILQNQADITTNKTAIEQNINRTVANGFEIEKNKAGIATNKQELILQNDRLNRINETNNHQDQKIDQLGYALKEQGQHFNNRISAVERQTAGGIANAIAIATLPSPSRAGEHHVLFGSGYHNGQAAVSLGAAGLSDTGKSTYKIGLSWSDAGGLSGGVGGSYRWK
notes: also called P6-P8; not shown: His tag from the pQE30 vector
- binding result [3]: no binding

B4: recombinant UspA1 fragment D-8 (peptide)
chain: ASSANTDRIATAELGIAENKKDAQIAKAQANENKDGIAKNQADIQLHDKKITNLGILHSMVARAVGNNTQGVATNKADIAKNQADIANNIKNIYELAQQQDQHSSDIKTLAKVSAANTDRIAKNKAEADASFETLTKNQNTLIEQGEALVEQNKAINQELEGFAAHADVQDKQILQNQADITTNKTAIEQNINRTVANGFEIEKNKAGIATNKQELILQNDRLNRINETNNHQDQKIDQLGYALKEQGQHFNNRISAVERQTAGGIANAIAIATLPSPSRAGEHHVLFGSGYHNGQAAVSLGAAGLSDTGKSTYKIGLSWSDAGGLSGGVGGSYRWK
notes: Limits deduced: D = 527 (see D-7), 8 = 863 (from 6-8, E659-K863); also called D-8 polypeptide; not shown: His tag from the pQE30 vector
- binding result (CD33-Fc [4]): no binding

B5: peptide D-8 with deletion of the region 571-632 (D-8Δ) (peptide)
chain: ASSANTDRIATAELGIAENKKDAQIAKAQANENKDGIAKNQADIIKTLAKVSAANTDRIAKNKAEADASFETLTKNQNTLIEQGEALVEQNKAINQELEGFAAHADVQDKQILQNQADITTNKTAIEQNINRTVANGFEIEKNKAGIATNKQELILQNDRLNRINETNNHQDQKIDQLGYALKEQGQHFNNRISAVERQTAGGIANAIAIATLPSPSRAGEHHVLFGSGYHNGQAAVSLGAAGLSDTGKSTYKIGLSWSDAGGLSGGVGGSYRWK
notes: Outer limits as deduced for D-8 (527-863); the deletion 571-632 is printed; also called control peptide; not shown: His tag from the pQE30 vector
- binding result [2]: no binding
